Experimental findings from paper PMC13326754 are described below.

For data set [1], the system named is U2AF1beta;U2AF2beta (Fritillaria borealis;Fritillaria borealis). Description: EMSA. The conditions noted are these: 330 nM U2AF; never exceeded 5% bound; EMSA: 20 mM Hepes, 0.1 M NaCl, 5% glycerol, 0.5% Tween-20, pH 7.8, 50 ng/ul BSA, 0.5 mM TCEP, 0.5 mM EDTA; 1 h on ice; 6% PAGE 0.5x TBE at 4 C.
Data set [2] deals with U2AF1alpha;U2AF2beta (Fritillaria borealis;Fritillaria borealis). The experiment in a line: EMSA. Conditions: 330 nM U2AF; never exceeded 5% bound; EMSA: 20 mM Hepes, 0.1 M NaCl, 5% glycerol, 0.5% Tween-20, pH 7.8, 50 ng/ul BSA, 0.5 mM TCEP, 0.5 mM EDTA; 1 h on ice; 6% PAGE 0.5x TBE at 4 C. Background: In EMSA bound probe runs differently from free probe, usually more slowly.

Consider GGGUCGCUUCUCCCCCCCCCUAGGCGUCU [ORN.PyC], for which the binding signal in data set [1] and in data set [2] was less than 5 % bound in each case.
With “GGGCUGUCCUCUUUUUUUUUUCAGGCGUCU [ORN.PyU]”, the binding signal in data set [1] and in data set [2] was less than 5 % bound in each case.
